Test results published in article PMC3951674.
Read-outs that look alike come from different tables or passages of the source.

Columns and labels:
L43A ubiquitin [1] = biological target: L43A ubiquitin (UniProt P0CG48); test: NMR titration
L43A ubiquitin [2] = biological target: L43A ubiquitin (UniProt P0CG48); test: NMR titration; remark: listed apart in the source
L43A ubiquitin [3] = biological target: L43A ubiquitin (UniProt P0CG48); test: 15N T1 relaxation

Row | stoichiometry N (L43A ubiquitin [1]) | Kd (L43A ubiquitin [1]) [µM] | Kd (L43A ubiquitin [2]) [µM] | stoichiometry N (L43A ubiquitin [3]) | Substance
1 | 1 |  |  |  | UBA2 domain of hHR23a (from UniProt P54725 1-363) (domain or fragment)
2 |  | 26 | 28 | 1 | ubiquilin-1 UBA domain (UQ1-UBA) construct (from UniProt Q9UMX0 541-586) (domain or fragment)
